# Test results taken from patent publication US20040091953.
# Tested on: T1, peptide corresponding to the first 22 amino acids of histone 4, chemically acetylated in vitro
# T1 sequence: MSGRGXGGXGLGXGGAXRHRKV
substance,measurement,value
hSIRT6,NAD-dependent deacetylase activity,showed no detectable activity
